Results from patent US20160200782A1 (MOERAE MATRIX, published 2016).

B1: MMI-0300 (peptide)
peptide: FAKLAARLYRKALARQLGVAA
B2: MMI-0400 (peptide)
peptide: KAFAKLAARLYRKALARQLGVAA

Assays:
Assay in all cases: cell-based or functional assay
PTK5(h) = PTK5(h) (human, UniProt P42685 1-505, limits assumed)
SAPK3(h) = target: T1, SAPK3(h) (human, UniProt P53778 1-367)
T1 sequence (looked up): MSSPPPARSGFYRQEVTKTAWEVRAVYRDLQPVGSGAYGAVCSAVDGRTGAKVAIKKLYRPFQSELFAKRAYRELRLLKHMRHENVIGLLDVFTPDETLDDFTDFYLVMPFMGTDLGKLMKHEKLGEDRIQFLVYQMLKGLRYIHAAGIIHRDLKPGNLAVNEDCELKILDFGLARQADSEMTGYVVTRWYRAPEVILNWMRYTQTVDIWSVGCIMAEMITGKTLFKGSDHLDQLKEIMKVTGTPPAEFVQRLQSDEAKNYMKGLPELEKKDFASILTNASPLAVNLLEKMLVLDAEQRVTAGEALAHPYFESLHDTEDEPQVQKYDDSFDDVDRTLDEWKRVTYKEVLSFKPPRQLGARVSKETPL

FGFR1(h) = FGFR1(h) (human, UniProt P11362 456-765, limits assumed)
Chain of FGFR1(h) (P11362 456-765 limits assumed): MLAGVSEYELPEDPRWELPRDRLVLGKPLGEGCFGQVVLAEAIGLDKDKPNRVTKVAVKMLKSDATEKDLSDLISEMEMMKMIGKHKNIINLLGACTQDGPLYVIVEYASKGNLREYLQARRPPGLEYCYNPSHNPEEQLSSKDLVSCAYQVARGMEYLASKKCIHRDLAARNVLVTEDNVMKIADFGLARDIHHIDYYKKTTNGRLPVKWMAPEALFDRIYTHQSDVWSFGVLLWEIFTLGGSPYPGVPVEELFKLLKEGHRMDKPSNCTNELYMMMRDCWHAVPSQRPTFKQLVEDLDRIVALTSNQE

Tie2(h) = Tie2(h) (human, UniProt Q02763 771-1124, limits assumed)
Chain of Tie2(h) (Q02763 771-1124 limits assumed): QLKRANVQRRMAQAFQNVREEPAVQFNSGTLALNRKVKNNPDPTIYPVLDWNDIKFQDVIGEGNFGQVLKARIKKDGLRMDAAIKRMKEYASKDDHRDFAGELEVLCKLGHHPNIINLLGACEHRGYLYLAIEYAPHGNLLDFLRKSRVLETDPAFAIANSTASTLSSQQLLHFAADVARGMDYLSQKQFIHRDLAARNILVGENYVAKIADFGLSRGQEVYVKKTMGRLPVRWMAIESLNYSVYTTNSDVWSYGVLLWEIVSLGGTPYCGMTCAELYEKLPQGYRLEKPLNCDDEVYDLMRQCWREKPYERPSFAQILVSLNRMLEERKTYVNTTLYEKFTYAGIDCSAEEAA

PRK2(h) = PRK2(h) (human, UniProt Q16513 501-984, limits assumed)
Chain of PRK2(h) (Q16513 501-984 limits assumed): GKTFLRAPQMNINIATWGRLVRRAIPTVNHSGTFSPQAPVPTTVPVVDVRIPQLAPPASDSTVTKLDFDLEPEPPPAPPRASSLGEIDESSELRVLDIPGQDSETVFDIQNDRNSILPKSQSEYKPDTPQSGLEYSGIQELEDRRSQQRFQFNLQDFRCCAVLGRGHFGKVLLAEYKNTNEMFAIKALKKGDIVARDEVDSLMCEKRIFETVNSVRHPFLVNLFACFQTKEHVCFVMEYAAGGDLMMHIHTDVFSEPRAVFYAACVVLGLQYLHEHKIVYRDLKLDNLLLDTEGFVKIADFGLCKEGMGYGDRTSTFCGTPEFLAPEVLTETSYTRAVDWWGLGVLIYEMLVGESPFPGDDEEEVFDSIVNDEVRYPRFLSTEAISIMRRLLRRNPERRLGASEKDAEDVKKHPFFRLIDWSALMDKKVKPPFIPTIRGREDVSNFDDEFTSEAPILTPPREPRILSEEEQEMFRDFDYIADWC

CDK3/cyclinE(h) = CDK3/cyclinE(h) (human, UniProt Q00526 1-305; Q00526 1-305)
Chain of CDK3/cyclinE(h) (Q00526 whole entry, chain 1 of 2): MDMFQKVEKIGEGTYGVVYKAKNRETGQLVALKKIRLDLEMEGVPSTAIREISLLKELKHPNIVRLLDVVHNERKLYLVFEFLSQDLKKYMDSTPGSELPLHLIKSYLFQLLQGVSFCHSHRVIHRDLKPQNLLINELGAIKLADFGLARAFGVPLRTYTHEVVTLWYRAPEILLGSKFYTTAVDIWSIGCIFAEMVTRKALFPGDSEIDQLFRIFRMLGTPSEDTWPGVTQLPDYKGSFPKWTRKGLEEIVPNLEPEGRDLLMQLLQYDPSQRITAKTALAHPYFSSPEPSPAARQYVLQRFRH
Chain of CDK3/cyclinE(h) (Q00526 whole entry, chain 2 of 2): as the sequence (Q00526 whole entry, chain 1 of 2) above

MAPKAP-K3(h) = MAPKAP-K3(h) (human, UniProt Q16644 1-382, limits assumed)
Chain of MAPKAP-K3(h) (Q16644 whole entry): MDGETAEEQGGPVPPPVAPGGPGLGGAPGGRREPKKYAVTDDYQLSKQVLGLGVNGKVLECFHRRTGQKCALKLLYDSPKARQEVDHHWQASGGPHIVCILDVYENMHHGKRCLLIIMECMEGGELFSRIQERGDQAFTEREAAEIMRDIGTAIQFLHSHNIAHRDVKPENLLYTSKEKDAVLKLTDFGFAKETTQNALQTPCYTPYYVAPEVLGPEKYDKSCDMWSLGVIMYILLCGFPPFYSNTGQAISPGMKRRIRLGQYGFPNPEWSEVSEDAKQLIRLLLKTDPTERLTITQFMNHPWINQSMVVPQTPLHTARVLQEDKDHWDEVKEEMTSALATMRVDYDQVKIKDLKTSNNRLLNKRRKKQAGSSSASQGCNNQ

cKit(V654A)(h) = cKit(V654A)(h) (human, UniProt P10721 544-976, limits assumed)
Chain of cKit(V654A)(h) (P10721 544-976 V654A limits assumed): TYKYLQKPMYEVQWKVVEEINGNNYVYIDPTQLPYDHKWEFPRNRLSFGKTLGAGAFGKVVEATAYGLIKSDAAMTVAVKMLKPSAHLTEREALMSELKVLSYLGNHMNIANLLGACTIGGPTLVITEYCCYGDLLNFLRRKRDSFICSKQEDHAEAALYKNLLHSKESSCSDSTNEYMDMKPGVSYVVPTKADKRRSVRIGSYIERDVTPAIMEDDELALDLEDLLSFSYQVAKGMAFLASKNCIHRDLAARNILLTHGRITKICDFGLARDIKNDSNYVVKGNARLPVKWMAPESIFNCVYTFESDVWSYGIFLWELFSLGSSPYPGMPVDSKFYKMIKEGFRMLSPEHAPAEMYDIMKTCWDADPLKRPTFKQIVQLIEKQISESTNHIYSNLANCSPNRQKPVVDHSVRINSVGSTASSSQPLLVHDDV

Mnk2(h) = Mnk2(h) (human, UniProt Q9HBH9 1-465, limits assumed)
Chain of Mnk2(h) (Q9HBH9 whole entry): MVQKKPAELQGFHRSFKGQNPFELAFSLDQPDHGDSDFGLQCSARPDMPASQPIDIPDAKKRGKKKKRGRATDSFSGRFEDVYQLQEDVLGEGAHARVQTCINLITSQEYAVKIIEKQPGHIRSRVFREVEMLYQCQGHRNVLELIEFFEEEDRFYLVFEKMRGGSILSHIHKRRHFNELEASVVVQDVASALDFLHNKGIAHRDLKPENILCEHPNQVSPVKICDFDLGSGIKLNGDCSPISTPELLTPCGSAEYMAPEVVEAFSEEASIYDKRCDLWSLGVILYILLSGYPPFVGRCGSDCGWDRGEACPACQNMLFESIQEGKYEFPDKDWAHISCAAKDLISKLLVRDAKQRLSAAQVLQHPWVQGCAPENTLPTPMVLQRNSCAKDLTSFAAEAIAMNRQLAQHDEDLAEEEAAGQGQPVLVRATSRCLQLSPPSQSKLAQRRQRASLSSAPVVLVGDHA

Met(h) = Met(h) (human, UniProt P08581 956-1390, limits assumed)
Chain of Met(h) (P08581 956-1390 limits assumed): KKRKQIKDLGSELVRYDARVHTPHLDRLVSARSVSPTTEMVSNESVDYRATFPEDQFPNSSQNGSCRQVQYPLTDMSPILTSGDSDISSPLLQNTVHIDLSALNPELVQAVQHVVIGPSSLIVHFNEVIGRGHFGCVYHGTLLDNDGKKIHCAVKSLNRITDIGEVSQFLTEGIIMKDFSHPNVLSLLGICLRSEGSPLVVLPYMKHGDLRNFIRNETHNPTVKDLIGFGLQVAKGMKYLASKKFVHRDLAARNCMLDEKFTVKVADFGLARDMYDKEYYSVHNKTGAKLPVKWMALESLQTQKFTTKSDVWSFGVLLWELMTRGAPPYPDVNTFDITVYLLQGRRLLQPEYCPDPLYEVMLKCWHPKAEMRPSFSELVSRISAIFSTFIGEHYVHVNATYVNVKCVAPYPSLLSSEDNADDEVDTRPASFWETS

Ab1(T315I)(h) = Ab1(T315I)(h) (human, UniProt P00519 27-1130, limits assumed)
ROCK-II(h) = ROCK-II(h) (human, UniProt O75116 11-552)
Chain of ROCK-II(h) (O75116 11-552 limits assumed): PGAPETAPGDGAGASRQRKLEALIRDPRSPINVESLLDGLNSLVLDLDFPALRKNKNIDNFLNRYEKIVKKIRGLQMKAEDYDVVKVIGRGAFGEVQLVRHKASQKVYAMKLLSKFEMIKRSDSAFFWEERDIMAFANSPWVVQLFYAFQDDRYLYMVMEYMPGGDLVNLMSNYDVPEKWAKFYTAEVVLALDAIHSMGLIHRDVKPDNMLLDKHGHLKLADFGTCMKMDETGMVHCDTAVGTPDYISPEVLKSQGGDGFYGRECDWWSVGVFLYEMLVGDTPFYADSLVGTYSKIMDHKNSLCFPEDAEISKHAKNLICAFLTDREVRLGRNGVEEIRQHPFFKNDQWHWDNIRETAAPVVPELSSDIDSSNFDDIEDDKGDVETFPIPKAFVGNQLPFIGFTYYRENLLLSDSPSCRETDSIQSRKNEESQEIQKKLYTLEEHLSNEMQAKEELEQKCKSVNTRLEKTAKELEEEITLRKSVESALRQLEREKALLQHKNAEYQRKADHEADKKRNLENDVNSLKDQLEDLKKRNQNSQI

MAPKAP-K2(h) = MAPKAP-K2(h) (human, UniProt P49137 46-400)
Chain of MAPKAP-K2(h) (P49137 46-400 limits assumed): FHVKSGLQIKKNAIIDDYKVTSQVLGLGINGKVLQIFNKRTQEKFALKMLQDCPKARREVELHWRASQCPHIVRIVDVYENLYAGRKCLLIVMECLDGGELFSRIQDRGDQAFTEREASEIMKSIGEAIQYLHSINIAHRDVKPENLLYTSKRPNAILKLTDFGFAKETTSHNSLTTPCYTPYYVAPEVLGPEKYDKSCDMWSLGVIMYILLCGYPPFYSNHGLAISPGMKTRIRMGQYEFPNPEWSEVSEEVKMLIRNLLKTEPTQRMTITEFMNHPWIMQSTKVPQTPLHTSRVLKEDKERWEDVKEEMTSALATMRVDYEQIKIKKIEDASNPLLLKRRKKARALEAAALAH

CDK2/cyclinA(h) = CDK2/cyclinA(h) (human, UniProt P24941 1-298; P20248 1-432)
Ax1(h) = target: T2, Ax1(h) (human, UniProt P30530 473-894, limits assumed)
T2 sequence (looked up): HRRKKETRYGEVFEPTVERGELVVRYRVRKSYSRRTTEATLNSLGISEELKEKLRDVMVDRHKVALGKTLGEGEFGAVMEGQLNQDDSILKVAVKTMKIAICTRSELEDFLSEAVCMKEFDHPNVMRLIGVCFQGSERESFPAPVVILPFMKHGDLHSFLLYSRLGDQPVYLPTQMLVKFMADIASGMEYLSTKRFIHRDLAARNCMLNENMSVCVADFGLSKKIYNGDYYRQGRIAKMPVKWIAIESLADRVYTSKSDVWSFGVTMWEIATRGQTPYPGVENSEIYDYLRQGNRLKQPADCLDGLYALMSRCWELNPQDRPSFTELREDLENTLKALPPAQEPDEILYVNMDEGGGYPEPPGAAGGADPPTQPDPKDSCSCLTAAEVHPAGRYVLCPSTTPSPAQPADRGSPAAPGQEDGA

Src(1-530)(h) = Src(1-530)(h) (human, UniProt P12931 1-530)
Tec(h)activated = target: T3, Tec(h)activated (human, UniProt P42680 1-631, limits assumed)
T3 sequence (looked up): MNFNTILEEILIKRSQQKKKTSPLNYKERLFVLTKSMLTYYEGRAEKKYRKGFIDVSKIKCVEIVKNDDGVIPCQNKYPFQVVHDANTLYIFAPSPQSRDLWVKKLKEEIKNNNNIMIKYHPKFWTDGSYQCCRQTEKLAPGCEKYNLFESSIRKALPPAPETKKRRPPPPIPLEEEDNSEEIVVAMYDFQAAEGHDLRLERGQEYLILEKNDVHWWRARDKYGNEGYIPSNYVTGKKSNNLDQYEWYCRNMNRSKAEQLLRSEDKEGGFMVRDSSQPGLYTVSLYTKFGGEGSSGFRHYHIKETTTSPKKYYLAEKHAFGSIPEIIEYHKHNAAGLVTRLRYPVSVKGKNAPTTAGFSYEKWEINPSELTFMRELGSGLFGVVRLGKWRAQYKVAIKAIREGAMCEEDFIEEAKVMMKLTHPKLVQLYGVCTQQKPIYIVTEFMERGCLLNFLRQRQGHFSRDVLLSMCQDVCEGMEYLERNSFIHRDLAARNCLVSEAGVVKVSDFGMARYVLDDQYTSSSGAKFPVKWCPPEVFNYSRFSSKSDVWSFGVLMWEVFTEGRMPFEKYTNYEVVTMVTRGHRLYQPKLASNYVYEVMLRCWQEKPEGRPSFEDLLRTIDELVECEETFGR

Rse(h) = target: T4, Rse(h) (human, UniProt Q06418 451-890, limits assumed)
T4 sequence (looked up): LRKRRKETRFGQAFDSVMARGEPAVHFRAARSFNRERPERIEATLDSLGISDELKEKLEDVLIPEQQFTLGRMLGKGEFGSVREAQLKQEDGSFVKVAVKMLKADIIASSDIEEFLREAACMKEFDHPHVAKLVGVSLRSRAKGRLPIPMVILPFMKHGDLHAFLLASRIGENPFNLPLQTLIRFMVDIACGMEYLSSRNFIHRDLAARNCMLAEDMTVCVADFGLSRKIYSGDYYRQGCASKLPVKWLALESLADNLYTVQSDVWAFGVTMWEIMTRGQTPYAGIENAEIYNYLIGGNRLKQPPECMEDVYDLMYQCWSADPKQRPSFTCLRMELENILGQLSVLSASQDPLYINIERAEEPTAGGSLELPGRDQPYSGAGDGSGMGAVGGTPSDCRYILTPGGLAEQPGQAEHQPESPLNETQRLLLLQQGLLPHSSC
Also: test concentration or dose not given here.

Chain of PTK5(h) (P42685 whole entry): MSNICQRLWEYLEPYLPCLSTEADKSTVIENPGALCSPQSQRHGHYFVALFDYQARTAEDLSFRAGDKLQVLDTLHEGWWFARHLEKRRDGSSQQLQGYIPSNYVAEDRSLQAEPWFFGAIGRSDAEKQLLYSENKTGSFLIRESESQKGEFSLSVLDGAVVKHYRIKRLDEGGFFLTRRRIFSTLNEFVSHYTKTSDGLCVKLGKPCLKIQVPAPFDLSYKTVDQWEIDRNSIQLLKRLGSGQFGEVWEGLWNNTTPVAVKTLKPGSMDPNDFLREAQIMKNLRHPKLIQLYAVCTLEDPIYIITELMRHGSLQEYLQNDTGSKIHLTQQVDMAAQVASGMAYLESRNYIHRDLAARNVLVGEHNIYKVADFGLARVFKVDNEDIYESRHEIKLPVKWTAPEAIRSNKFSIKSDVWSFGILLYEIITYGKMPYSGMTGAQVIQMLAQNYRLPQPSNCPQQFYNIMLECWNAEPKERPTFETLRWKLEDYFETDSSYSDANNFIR

| Binder | % activity (PTK5(h)) | % activity (SAPK3(h)) | % activity (FGFR1(h)) | % activity (Tie2(h)) | % activity (PRK2(h)) | % activity (CDK3/cyclinE(h)) | % activity (MAPKAP-K3(h)) | % activity (cKit(V654A)(h)) | % activity (Mnk2(h)) | % activity (Met(h)) | % activity (Ab1(T315I)(h)) | % activity (ROCK-II(h)) | % activity (MAPKAP-K2(h)) | % activity (CDK2/cyclinA(h)) | % activity (Ax1(h)) | % activity (Src(1-530)(h)) | % activity (Tec(h)activated) | % activity (Rse(h)) |
| --- | --- | --- | --- | --- | --- | --- | --- | --- | --- | --- | --- | --- | --- | --- | --- | --- | --- | --- |
| B1 | 132% | 84% | 55% | 26% | 33% | 94% | 3% | 134% | 89% | 65% | 97% | 74% | 5% | 86% | 52% | 23% | 56% | 88% |
| B2 | 129% | 79% | 59% | 21% | 27% | 92% | 7% | 150% | 86% | 62% | 105% | 77% | 5% | 92% | 41% | 19% | 29% | 89% |
